# Measured values: IntAct's records for PubMed 21169485
# B1: Lipopolysaccharide export system protein LptC (Escherichia coli (strain K12)), P0ADV9 (parent)
# chain: MSKARRWVIIVLSLAVLVMIGINMAEKDDTAQVVVNNNDPTYKSEHTDTLVYNPEGALSYRLIAQHVEYYSDQAVSWFTQPVLTTFDKDKIPTWSVKADKAKLTNDRMLYLYGHVEVNALVPDSQLRRITTDNAQINLVTQDVTSEDLVTLYGTTFNSSGLKMRGNLRSKNAELIEKVRTSYEIQNKQTQP
# partner: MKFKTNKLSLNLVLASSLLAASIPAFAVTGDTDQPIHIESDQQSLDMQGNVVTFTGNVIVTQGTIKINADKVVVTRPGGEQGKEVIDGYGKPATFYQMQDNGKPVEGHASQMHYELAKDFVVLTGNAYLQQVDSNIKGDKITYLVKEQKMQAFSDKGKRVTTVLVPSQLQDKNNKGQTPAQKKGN
# Variants of: B1
# Conditions: with lpta_ecoli lptA
row,effect of a mutation on the interaction,Variant
1,disrupting interaction,G153R
